In publication PMC10148413, “Caf1 regulates the histone methyltransferase activity of Ash1 by sensing unmodified histone H3” (Epigenetics & Chromatin, 2023):

Assays:
Fly Caf1 wild-type = target: T1, Fly Caf1 wild-type (fly, UniProt Q24572 1-430); test: pull-down; GST-Ash1 fragments held on GST resin; 200 µL of 0.1 mg/mL purified Caf1 added for 1 h; 150 mM NaCl, 50 mM Tris-HCl (8.0); bound proteins analysed by SDS-PAGE; conditions: both partners purified
T1 construct: Caf1 (p55/Nurf55), fly; The same paragraph speaks of 'full-length Caf1' for the AMC co-expression; probably full length here too; also called p55; Nurf55; source: Sf9 cells (baculovirus), purified (Ni-NTA, HiTrap Q HP, Superdex 200); not shown: His6, N-terminal, cleaved

[1] = target: T2, Fly Caf1 H3 binding pocket mutant (E235Q/D252K/E279Q) (fly, UniProt Q24572 1-430, E235Q | D252K | E279Q); test: as above; conditions: both partners purified
T2 construct: In the functional row this mutant stood as a subunit of the AMC complex (AMC mut); source: Sf9 cells (baculovirus), purified (Ni-NTA, HiTrap Q HP, Superdex 200); not shown: His6, N-terminal, cleaved
T2 sequence (Q24572 whole entry E235Q/D252K/E279Q): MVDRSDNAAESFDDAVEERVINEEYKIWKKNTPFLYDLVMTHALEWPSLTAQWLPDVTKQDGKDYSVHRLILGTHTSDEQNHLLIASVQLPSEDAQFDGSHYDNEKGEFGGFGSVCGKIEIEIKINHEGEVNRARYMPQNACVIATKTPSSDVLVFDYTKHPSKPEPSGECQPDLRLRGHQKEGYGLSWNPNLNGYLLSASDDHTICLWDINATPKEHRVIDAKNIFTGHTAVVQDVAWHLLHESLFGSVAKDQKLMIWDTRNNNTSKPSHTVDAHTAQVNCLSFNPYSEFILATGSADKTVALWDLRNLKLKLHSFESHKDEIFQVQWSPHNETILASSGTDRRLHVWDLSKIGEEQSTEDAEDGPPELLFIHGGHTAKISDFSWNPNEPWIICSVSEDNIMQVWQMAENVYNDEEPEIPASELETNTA

T1 sequence (Q24572 whole entry, the tested form may be a part): as the sequence (Q24572 whole entry E235Q/D252K/E279Q) above, with Q235E, K252D, Q279E counted along it

B1: GST-CBM (Ash1 Caf1 Binding Motif, 1582–1616) (domain or fragment, fly, UniProt Q9VW15 1582-1616, looked up)
chain: AKLQPLSEKEKKLVRQFNTFLVRNFEKIRRCKAKR
notes: Vector pGEX-4T-1; also called Ash1_C1.6; Ash1_CBM
**Q.** Does B1 bind (Fly Caf1 wild-type)?
**A.** Result: binds

**Q.** Does B1 bind [1]?
**A.** Result: binds
